“And” between values parts separate entries of the source, which are not always exact repeats. Equal entries are not always repeated. Values belong to the binder of their own block, whether it stands above or below them.
Columns and labels:
[1] = molecular target: T1, human EMAPII (endothelial monocyte activating polypeptide II) antigen (human); assay: ELISA, plate coated with EMAPII antigen, anti-mouse IgG-HRP detection
T1 chain: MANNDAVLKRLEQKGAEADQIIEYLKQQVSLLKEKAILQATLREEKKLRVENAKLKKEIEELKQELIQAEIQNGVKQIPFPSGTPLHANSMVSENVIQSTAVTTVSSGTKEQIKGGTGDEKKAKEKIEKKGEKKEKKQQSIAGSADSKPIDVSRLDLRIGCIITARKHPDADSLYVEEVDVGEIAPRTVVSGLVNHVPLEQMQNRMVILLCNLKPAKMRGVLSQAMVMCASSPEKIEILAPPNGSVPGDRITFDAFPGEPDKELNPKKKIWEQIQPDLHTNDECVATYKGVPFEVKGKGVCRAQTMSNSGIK

[2] = molecular target: T1, human EMAPII (endothelial monocyte …); assay: ELISA, plate coated with 2.5 ug/ml EMAPII antigen, anti-human-IgG HRP detection; range over the 3 clones

- EC50 [1]: 0.0209 µg/mL
B1: mouse anti-EMAPII monoclonal antibody (antibody, V domains shown)
VH: QVQLQQSGAELARPGASVKMSCKASGYTFTSYTMHWVKQRPGQGLEWIGYINPSSGFTNYNQKFKDKATLTADKSSSTAYMQLSSLTSEDSAVYYCASRFAYWGQGTLVTVSA
VL: DIVMTQSHKFMSTSVGDRVSITCKASQDVSTAVAWYQQKPGQSPKLLIFSASYRYTGVPDRFTGSGSGTDFTFTISSVQAEDLAVYYCQQHYSTPYTFGGGTKLEIK

- EC50 [2]: 0.0215 µg/mL and 0.0302 µg/mL
B2: mouse/human chimeric antibody BAP015_1 (antibody, V domains shown)
VH: B1 VH
VL: B1 VL
